Assay results reported in article doi:10.1101/2024.05.07.593072.

Target: H-2Kb MHC class 1 molecule on RMA-S cells (mouse (endogenous in RMA-S))
Assay: peptide-induced MHC stabilisation assay

H-2Kb-positive cells: 55.3%
Substance: OVA peptide (SIINFEKL) synthesized with PCR-IVTT reaction
